Results reported in paper PMC7474679 (Proceedings of the National Academy of Sciences of the …, 2020).
No end group written: not given here. *: point of attachment. FITC = O=C1OC2(c3ccc(O)cc3Oc3cc(O)ccc32)c2ccc(NC(=S)*)cc21

T1: Full-length S. cerevisiae Pex5 (S. cerevisiae, UniProt P35056 1-612)
T1 sequence: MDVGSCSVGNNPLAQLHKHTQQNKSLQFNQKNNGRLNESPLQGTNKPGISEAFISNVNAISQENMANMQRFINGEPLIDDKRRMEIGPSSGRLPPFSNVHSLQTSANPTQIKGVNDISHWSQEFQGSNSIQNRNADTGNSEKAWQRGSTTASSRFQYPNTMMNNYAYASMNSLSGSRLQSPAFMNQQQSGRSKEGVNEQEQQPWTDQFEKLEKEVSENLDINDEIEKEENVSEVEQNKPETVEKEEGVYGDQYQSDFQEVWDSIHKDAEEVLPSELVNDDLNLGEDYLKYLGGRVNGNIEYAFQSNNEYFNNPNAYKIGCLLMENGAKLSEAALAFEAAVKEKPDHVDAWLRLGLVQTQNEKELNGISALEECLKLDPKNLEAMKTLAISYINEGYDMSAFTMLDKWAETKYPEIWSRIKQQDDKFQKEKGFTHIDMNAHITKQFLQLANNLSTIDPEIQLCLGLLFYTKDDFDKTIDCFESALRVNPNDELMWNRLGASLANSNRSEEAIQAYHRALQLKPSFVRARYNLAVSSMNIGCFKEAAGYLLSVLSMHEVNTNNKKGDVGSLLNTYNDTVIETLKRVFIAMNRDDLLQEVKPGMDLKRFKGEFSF


Each binder was assayed against T1, Full-length S. cerevisiae Pex5 (assay: fluorescence polarisation).
For {FITC}-YNENKRKAKL [Cat2 peptide (FITC-YNENKRKAKL)], the Kd was 49.9 ± 4.1 nM.
With {FITC}-GMDELYKSKL [mCherry-SKL peptide (FITC-GMDELYKSKL)] the Kd was 9840 nM.
In the case of {FITC}-YARVKRSSRL [Lys1 peptide (FITC-YARVKRSSRL)], the Kd is reported as 29.3 ± 3.65 nM.
Binder {FITC}-YKSSRNKSKL [Pcs60 peptide (FITC-YKSSRNKSKL)] has a Kd of 455 ± 43.8 nM.
